One data set has as its system human bone marrow. The data set is described as follows: Human bone marrow colony assay. Type of data set: cell-based. An outline of the steps:
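Ficoll-purified normal human marrow cells were cultured 14 days under low oxygen (7% O2, 10% CO2) in methylcellulose medium containing EPO (20 U/ml). Colonies counted were only those 0.2 mm or larger. Test material was recombinant human SCF (residues 1–162) from COS-1 supernatants, also combined with other factors.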

In a further data set the test system is mouse bone marrow cells. Put plainly: Pre-B cell colony formation in agar cultures. Type of data set: cell-based. The source says:
The ability of recombinant rat SCF^1-164 (rrSCF^1-164), to act synergistically with IL-7 to enhance lymphoid cell proliferation was studied in agar cultures of mouse bone marrow. In this assay, the colonies formed with rrSCF^1-164 alone contained monocytes, neutrophils, and blast-cells, while the colonies stimulated by IL-7 alone or in combination with rrSCF^1-164 contained primarily pre-B cells. Pre-B cells, characterized as B220^+, sIg^−, cμ^+, were identified by FACS analysis of pooled cells using fluorescence-labeled antibodies to the B220 antigen [Coffman, Immunol. Rev., 69, 5 (1982)] and to surface Ig (FITC-goat anti-K, Southern Biotechnology Assoc., Birmingham, Ala.); and by analysis of cytospin slides for cytoplasmic μ expression using fluorescence-labeled antibodies (TRITC-goat anti-μ, Southern Biotechnology Assoc.,). Recombinant human IL-7 (rhIL-7) was obtained from Biosource International (Westlake Village, Calif.). When rrSCF^1-164 was added in combination with the pre-B cell growth factor IL-7, a synergistic increase in colony formation was observed (Table 16), indicating a stimulatory role of rrSCF^1-164 on early B cell progenitors.

The next data set concerns the target T1, human c-kit (hckit-LT1) (Homo sapiens, UniProt P10721).
T1 construct: expressed in transfected cells; host or cells: COS-1 cells transfected with V19.8 carrying c-kit cDNA cloned from HEL cells; membrane fractions used
The data set is described as follows: ^125I-SCF^1-164 binding to recombinant c-kit in COS-1 cells. The source says: (§1) To test whether SCF^1-164 is the ligand for c-kit, the cDNA for the entire murine c-kit [Qiu et al., EMBO J., 7, 1003–1011 (1988)] was amplified using PCR from the SCF^1-164 responsive mast cell line MC/9 [Nabel et al., Nature, 291, 332–334 (1981)] with primers designed from the published sequence. The ligand binding and transmembrane domains of human c-kit, encoded by amino acids 1–549 [Yarden et al., EMBO J., 6, 3341–3351 (1987)], were cloned using similar techniques from the human erythroleukemia cell line, HEL [Martin and Papayannopoulou, Science, 216, 1233–1235 (1982)]. The c-kit cDNAs were inserted into the mammalian expression vector V19.8 transfected into COS-1 cells, and membrane fractions prepared for binding assays using either rat or human ^125I-SCF^1-164 according to the methods described in Sections B and C below. […] There was no detectable specific binding of ^125I human SCF^1-164 to COS-1 cells transfected with V19.8 alone. However, COS-1 cells expressing human recombinant c-kit ligand binding plus transmembrane domains (hckit-LT1) did bind ^125I-hSCF^1-164 (Table 17). The addition of a 200 fold molar excess of unlabelled human SCF^1-164 reduced binding to background levels. Similarly, COS-1 cells transfected with the full length murine c-kit (mckit-L1) bound rat ^125I-SCF^1-164. […] This finding is in accord with the broad cellular distribution of c-kit expression. Rat ^125I-SCF^1-164 binds similarly to both human and murine c-kit, while human ^125I-SCF^1-164 bind with lower activity to murine c-kit (Table 17).
(§2) Human and murine c-kit cDNA clones were derived using PCR techniques [Saiki et al., Science, 239, 487–491 (1988)] from total RNA isolated by an acid phenol/chloroform extraction procedure [Chomczynsky and Sacchi, Anal. Biochem., 162, 156–159, (1987)] from the human erythroleukemia cell line HEL and MC/9 cells, respectively. Unique sequence oligonucleotides were designed from the published human and murine c-kit sequences. First strand cDNA was synthesized from the total RNA according to the protocol provided with the enzyme, Mo-MLV reverse transcription (Bethesda Research Laboratories, Bethesda, Md.), using c-kit antisense oligonucleotides as primers. Amplification of overlapping regions of the c-kit ligand binding and tyrosine kinase domains was accomplished using appropriate pairs of c-kit primers. These regions were cloned into the mammalian expression vector V19.8 (FIG. 17) for expression in COS-1 cells. […] A clone free of these mutations was constructed by reassembly of mutation-free restriction fragments from separate clones. […]

A further data set addresses T2, murine c-kit (mckit-L1) (Mus musculus, UniProt P05532).
T2 construct: expressed in transfected cells; host or cells: COS-1 cells transfected with V19.8 carrying c-kit cDNA cloned from MC/9 mast cells; membrane fractions used
The data set is described as above.
Source text: as §1, §2

T2 sequence (P05532 25-979): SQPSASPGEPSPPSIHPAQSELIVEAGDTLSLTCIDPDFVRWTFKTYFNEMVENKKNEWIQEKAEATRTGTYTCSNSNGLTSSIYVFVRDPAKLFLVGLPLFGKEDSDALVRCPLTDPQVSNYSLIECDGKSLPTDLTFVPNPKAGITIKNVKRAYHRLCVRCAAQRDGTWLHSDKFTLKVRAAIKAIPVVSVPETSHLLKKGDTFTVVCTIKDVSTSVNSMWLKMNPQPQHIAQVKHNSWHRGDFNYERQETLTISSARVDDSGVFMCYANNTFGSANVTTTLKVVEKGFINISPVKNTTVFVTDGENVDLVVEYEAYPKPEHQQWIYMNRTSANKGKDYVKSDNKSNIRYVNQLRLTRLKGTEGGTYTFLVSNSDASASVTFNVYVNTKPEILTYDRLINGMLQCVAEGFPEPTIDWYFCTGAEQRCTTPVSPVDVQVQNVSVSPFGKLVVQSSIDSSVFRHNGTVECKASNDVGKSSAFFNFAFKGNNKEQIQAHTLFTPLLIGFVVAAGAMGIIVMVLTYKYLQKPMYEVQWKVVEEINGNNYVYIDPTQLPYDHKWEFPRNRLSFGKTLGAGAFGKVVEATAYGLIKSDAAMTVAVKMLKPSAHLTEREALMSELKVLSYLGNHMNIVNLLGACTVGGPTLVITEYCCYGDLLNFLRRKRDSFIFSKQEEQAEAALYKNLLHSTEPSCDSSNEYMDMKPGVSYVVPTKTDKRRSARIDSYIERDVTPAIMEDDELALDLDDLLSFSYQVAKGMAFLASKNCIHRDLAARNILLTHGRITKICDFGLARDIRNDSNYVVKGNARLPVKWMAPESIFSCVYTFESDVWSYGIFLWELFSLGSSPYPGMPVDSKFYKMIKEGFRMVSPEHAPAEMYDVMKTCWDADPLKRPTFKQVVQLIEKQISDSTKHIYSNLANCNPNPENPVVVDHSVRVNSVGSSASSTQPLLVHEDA

B1: rrSCF^1-164: recombinant rat SCF^1-164 from E. coli, also used ^125I-labelled (protein)
chain: QEICRNPVTDNVKDITKLVANLPNDYMITLNYVAGMDVLPSHCWLRDMVTHLSVSLTTLLDKFSNISEGLSNYSIIDKLGKIVDDLVACMEENAPKNVKESLKKPETRNFTPEEFFSIFNRSIDAFKDFMVASDTSDCVLSSTLGPEKDSRVSVTKPFMLPPVA
On to B1, for which the “specific activity in proliferation of human bone marrow” value in the data set with human bone marrow is “specific activity similar to that of human SCF^1-164”. In addition, the “Colony Number per 5 × 10^4 mouse bone marrow cells plated” value in the data set on mouse bone marrow cells (50 ng) is given as 4 ± 2; in the data set with mouse bone marrow cells (100 ng), 7 ± 4; in the data set with mouse bone marrow cells (200 ng, mean of triplicate dishes ± SD), 13 ± 2. Moreover, the “CPM Bound, ^125I-SCF + cold” value was 1,100 CPM with human c-kit (hckit-LT1) (1.6 nM ^125I-SCF^1-164 + 320 nM unlabelled SCF^1-164, V19.8:hckit-LT1) and 600 CPM with murine c-kit (mckit-L1) (1.6 nM ^125I-SCF^1-164 + 320 nM unlabelled SCF^1-164, V19.8:mckit-L1). Also, the “CPM Bound, ^125I-SCF” value with human c-kit (hckit-LT1) (1.6 nM ^125I-SCF^1-164, plasmid V19.8:hckit-LT1) is reported as 70,000 CPM; with murine c-kit (mckit-L1) (1.6 nM ^125I-SCF^1-164, plasmid V19.8:mckit-L1) it was 52,700 CPM.

(Values after patent US7144731B2, “SCF antibody compositions and methods of using the same” (Amgen Inc., priority 1989, dated 2006).)
